Results: patent US20230131339A1, “EPI-X4 BASED PEPTIDES AND DERIVATIVES THEREOF” (Universitaet Ulm, priority 2020, published 2023)
Where a SMILES comes first, the peptide text is derived from it. [ ]: non-standard residue; d: D form. The star is where a group is joined. DOTA = O=C(O)CN1CCN(CC(=O)O)CCN(CC(=O)*)CCN(CC(=O)O)CC1

Experiment: Small animal SPECT/CT and PET/CT imaging (total body distribution)
Format: in vivo, Balb/c mice
Settings: ^68Ga-labeled, tail vein, 1 h p.i.
Method: SPECT/CT: The total body distribution of [^177Lu]Lu-Pentixather was compared to [^177Lu]Lu-DOTA-K-JM #173 and [^177Lu]Lu-DOTA-K-JM #235. Healthy Balb/c mice were injected into the tail vein with 15-20 MBq ([…]) of ^177Lu-labeled complexes and SPECT/CT images was acquired 4 h post injection (p.i.). For acquiring the images, mice were euthanized by CO2 inhalation after 4 hours, measured in a suitable dose calibrator and imaged supine, head first, using a SPECT/CT system dedicated to imaging small animals (NanoSPECT/CTTM Bioscan Inc.). The images were reconstructed using proprietary HiSPECT iterative reconstruction and fused with CT images using proprietary InVivoScope (Bioscan) software.
PET/CT: PET/CT imaging was performed to determine and compare the total body distribution of [^68Ga]Ga-Pentixather with [^68Ga]Ga-DOTA-K-JM #173. Healthy Balb/c mice were injected into the tail vein with 5-6 MBq ([…]) of ^68Ga-labeled complexes and PET/CT images were acquired 1 h p.i. For acquiring the images, mice were euthanized by CO2 inhalation after 1 h, measured in a suitable dose calibrator and imaged supine, head first, using a PET/CT system dedicated to imaging small animals (Molecubes). The images were reconstructed using the Molecubes software and fused with CT images using Vivo Quant. […]

## CC[C@@H](C)[C@@H](N)C(=O)N[C@@H](CC(C)C)C(=O)N[C@@H](CCCNC(=N)N)C(=O)N[C@@H](Cc1c[nH]c2ccccc12)C(=O)N[C@@H](CO)C(=O)N[C@@H](CCCNC(=N)N)C(=O)N[C@@H](CCCCN)C(=O)N[C@@H](CCCCNC(=O)CN1CCN(CC(=O)O)CCN(CC(=O)O)CCN(CC(=O)O)CC1)C(N)=O [[^68Ga]Ga-DOTA-K-JM#173] [metal not drawn] (H-[dI]LRWSRKK(DOTA)-NH2)
  total body distribution, PET/CT: no specific uptake in any organ in vivo
